Assay results as given in the RNAGym collection of RNA variant scans (doi:10.1073/pnas.2313332121).
This sample holds only a part of the variants without activity.

B1: TPR 5TU (parent)
chain: GGAUCUUCUCGAUCUAACAAAAAAGACAAAUCUGCCACAAAGCUUGAGAGCAUCUUCGGAUGCAGAGGCGGCAGCCUUCGGUGGCGCGAUAGCGCCAACGUUCUCAACUAUGACACGCAAAACGCGUGCUCCGUUGAAUGGAGUUUAUCAUG

Variants of: B1
Experiment: polymerase ribozyme fitness, log enrichment relative to wild type (log ratio); higher = more active; in vitro selection for triplet polymerase activity
In short: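 One round of in vitro selection, in triplicate, was applied to PCR-built, transcribed mutant libraries of each subunit of a heterodimeric triplet polymerase ribozyme. The steps were annealing with a biotinylated primer, partner subunit and triplets, incubation frozen at −7 °C, gel excision of extended constructs, streptavidin-bead capture and RT-PCR. Fitness is the logarithm, base 2, of genotype enrichment over wild-type enrichment from inverse-variance-weighted replicate averages of Illumina-sequenced inputs and outputs, keeping genotypes with ≥10 input reads and ≥1 read per output.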

Variant | polymerase ribozyme fitness (log ratio)
G59C A147C | -0.516
G58U A150C | -3.57
G59C A119C | -0.18
G59C C95U A110G C116A | -3.2
G59U C75U C76U C93G A115U | ≤ -4.2
G58U U78G C79U G80A C85U C96U A106G A147C | ≤ -4.2
G58A A73C | -1.62
G59A C85U U134A | -3.92
G59C C79U | -3.43
G58A G88U C96U C118A C125A G133A | ≤ -4.2
G58A C75U C96G | 0.314
G59C C95U | 0.0454
G59C C95A | -0.188
G58U A91G | -2.46
G59U C69G G88C C125A | ≤ -4.2
G59A C79U | -3.86
G58A G83A A147C | -0.252
G59C G83A C87A A137U G140U | ≤ -4.2
G58U A97G A98G G117U U146G | -0.542
G59A G88U | -3.96
G59A G88A | -4.04
G59A G88C | -3.73
G59A G124U C125G G136U U139A U146A | ≤ -4.2
G59U A120U A122U | -0.451

Variant | polymerase ribozyme fitness (log ratio)
G58C A60G C75U | 0.32
G59A A60G G94U C95A | -1.74
G58U G59A | 0.429
G59A G67A G86C C96G G140U U144C A147U | ≤ -4.2
G59C G86A A89G | -4
G59C U78C G83A | -0.666
G59A G84U G92C C95G G124C | -2.69
G58C C75G C76G C85U | ≤ -4.2
G58C A91C C125G | ≤ -4.2
G58A G94A | -0.945
G58A G94C | -0.674
G58C U102A C114A | -4.12
G59A G84U A98G A115U | -3.58
G58C A66C C87G U139A | ≤ -4.2
G58C C93U | -1.71
G58A C75G C125G C129A U151G | ≤ -4.2
G58C G84U G136U | -3.72
G59A U78A G92U C96A C114U A121U | ≤ -4.2
G59C U78G G81C | -4.11
G58U C69A G83A | -1.52
G59U C75A C96G | ≤ -4.2
G59C G124A | -1.57
G59C A120U A122C A147G | -1.22
G58A C87U C93A U130G | ≤ -4.2

Variant | polymerase ribozyme fitness (log ratio)
G58C A73G G84U | -1.97
G58U C129G | -2.47
G58C C103A U145G | -1.84
G58A A64U G74A C79A U90C C96A C149A | ≤ -4.2
G59A C75G G94U C95U | -3.76
G58A U77C G80U U90G C93A A121G A142G | ≤ -4.2
G59A G94A A150C | ≤ -4.2
G59A C96A G117U | -0.271
G58C C87U U135A | -2.15
G59C C85U | -0.507
G59C C85G C95U C116A | -2.38
G59C G86C C96U A121U | -3.29
G59C A107U G143U | ≤ -4.2
G59A G70U C93G A113U | ≤ -4.2
G58A U145G | 0.851
G58A C85U A115U U144G | -1.46
G58C G59C C96U C131A | -4.15
G58A C75U C118G | -0.168
G59A C149A | -3.65
G58A U146G | 0.231
G58C C85U A89G G136A | -3.96
G59C C69A G133C | -1.75
G58C C96A A115U G128U | ≤ -4.2
G59C C63U C87U A107U | -3.81

Variant | polymerase ribozyme fitness (log ratio)
G58U G68A C95U | -4.01
G58A G83U | 0.174
G59A G136C | -2.89
G59C U61G C96G C105U A115U A150U | ≤ -4.2
G59A C116U | -0.293
G59C U61A | -1.51
G58A C87A A98G A121C | ≤ -4.2
G58A G59U G62C G67U A73U C96A U130G A138U A150G | ≤ -4.2
G58U U61A U90A A142G | ≤ -4.2
G58U G88C U130G | ≤ -4.2
G58U G86C | -1.98
G58C G70C G141A | ≤ -4.2
G59C A98U C125A G140C | ≤ -4.2
G59A C93U A98U A138C | ≤ -4.2
G59A C85U U102G A106C G141A | ≤ -4.2
G58C C85A A110C U111G | ≤ -4.2
G58C A60G | 0.746
G58U G152U | -2.71
G58A A98G G100A U104G A113G A119U A120U A122U U145C | ≤ -4.2
G59C A64U C75U C132U | ≤ -4.2
G58C C118A | -0.0404
G58C G84A G112U | ≤ -4.2
G59A C69A G86U A89C C95G | ≤ -4.2
G59A A115G G140A | ≤ -4.2

Variant | polymerase ribozyme fitness (log ratio)
G58C A89G | -0.995
G58C C96U A98G A121G | -0.614
G58A G86U | -1.12
G58A G133A | -4
G58U G141C | 0.501
G58U G141A | 1.05
G59C A89C C93U G117C A120G U135A | -3.35
G58C A66G G140U | ≤ -4.2
G59A A64C G88C | ≤ -4.2
G59A G71A G117C | -3.56
G58C C72U U101G | 0.371
G58C G86U U104G | -1.93
G58A C103U C118A C132A A138C | ≤ -4.2
G59U A91U G141A | ≤ -4.2
G59C G68C G70U G140U | ≤ -4.2
G59U C76U C105A A113U C116U | ≤ -4.2
G59U A91U | -4.12
G58A G80C | ≤ -4.2
G58U U82A A142G | -0.998
G58A A73G C116U | 0.431
G59A | -0.0739
G59U | -0.206
G59C | 0.0972
G59C G84A | -0.218

Variant | polymerase ribozyme fitness (log ratio)
G58U U82A C116U | 0.803
G59A C118A | -0.536
G58A C87U | -0.808
G59C A97U | -0.431
G58C C85U | -1.17
G59A C125A | 0.12
G58C C87A U109C U130G | ≤ -4.2
G59A U90G C95G | ≤ -4.2
G59C C93U C116U U135G | -3.78
G59C C93U U102A A137G | -3.95
G59C C99G G141U | -1.13
G58C U111G C116A A137C | ≤ -4.2
G58U U82A G84U | -0.648
G58U C123U | 0.837
G59C G71A A115G | -4.09
G59C G86U C95U | -2.13
G58C C63U C95G | -2.14
G58A | 0.338
G58C | 0.0074
G58U | -0.0298
G58A A73U U101G U102A U109A | ≤ -4.2
G58U C87U C125G | -0.741
G58C G83C G117C | -0.409
G59A C99U A115G | -1.83

Variant | polymerase ribozyme fitness (log ratio)
G58A C116U | 0.457
G59A G86U | -1.84
G59A G86A | -2.02
G58C C87G A98G | ≤ -4.2
G59A A147U | 1.25
G59C G62A A122U U134G | -3.13
G59A C76A C85A G117A A122C | -2.85
G58U C85A C95G C96U | -3.24
G58A U82C G92C A110U G136A | ≤ -4.2
G59C U61G G84A C95G A120C G143U | -4.18
G58C C79G A107U U134A U139C | ≤ -4.2
G59C G100A A115C U144C | ≤ -4.2
G59A A66G | -3.24
G58A A66G C93U C99U | ≤ -4.2
G59U C93A G133A A138U G141A | ≤ -4.2
G58A U61A A107G C118G A119G | ≤ -4.2
G59A G94C | -0.903
G59A C85G G126U | -2.21
G58A U82A A89U A119G A120U G126U | -0.897
G59A C85G G100A A115U U127G G141A | ≤ -4.2
G58U C87A U109C U148C | ≤ -4.2
G58A C87U G92A A150G | -0.884
G58A C87U C108U A142C | -3.89
